Data taken from the supplement of paper PMC9732359.
± gives the uncertainty stated by the source.

Experiment: protein stability index of a GFP-peptide fusion (yeast GPS) (PSI 1-4); higher = more stable; sorted into four equal gates, so the index is relative within each strain
Conditions: doa10∆
Procedure, shortened: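 Mid-log yeast cultures in leucine-free medium, carrying a pooled plasmid library, were sorted into four equal gates by their GFP/Cherry fluorescence ratio. Each plasmid expressed Cherry along with GFP fused upstream of a tiled 17-residue yeast protein peptide. Plasmids recovered from each gate were PCR-amplified and Illumina-sequenced, with reads assigned to strains by barcodes. The protein stability index was obtained by summing each gate's read frequency weighted by its gate number.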

Row | Sequence | protein stability index
1 | GSVIQTHIAESAKEIAK [MCD1] | 2.91 ± 0.09
2 | GTGKTMLVKAVANSTKA [RPT3] | 2.64 ± 0.19
3 | GTGNNNKLNFIVDDKQE [DIB1] | 1.42 ± 0.073
4 | GTIKKIEQFAMRRNSKI [POP5] | 2.79 ± 0.065
5 | GTLKVILNLYSSAHLIR [YML103C/NUP188] | 2.07 ± 0.15
6 | GTSVYLVDKRIDMLPML [DIS3] | 1.89 ± 0.18
7 | GVAHLLNRFNFQNTNTR [QCR2] | 2.69 ± 0.084
8 | GVARIYASFNDTFVHVT [RPS14B] | 1.64 ± 0.082
9 | GVARNFHFAIEQISNNS [SIN4] | 2.8 ± 0.1
10 | GVDPTGSHLFSIHAHGS [PUP1] | 2.31 ± 0.1
11 | GVLKPDITFFGEALPNK [SIR2] | 3.34 ± 0.08
12 | GVLLPTRIKLLLTKNVS [RPS6A] | 1.43 ± 0.11
13 | GVTIEFSTNVKDEIVLS [RPL9A] | 3.09 ± 0.23
14 | GYKMIPGAKPLQVGDVV [FAS1] | 2.43 ± 0.1
15 | HAQLLLSDRITGNFIIP [PRP8] | 2.09 ± 0.061
16 | HDYWNKIMQSISNKDVI [SRB4] | 1.85 ± 0.27
17 | HEIYGSMPLEQLIPIIL [SRB4] | 2.06 ± 0.06
18 | HEVVQDDSFSLLRIQML [PCI8] | 2.7 ± 0.049
19 | HFFKWIEFIVYHQLLSD [SRB8] | 1.45 ± 0.05
20 | HFNGIRRLDALVEKVYA [ITC1] | 3.65 ± 0.11
21 | HGHLGFLPRKRAASIRA [RPL3] | 2.1 ± 0.086
22 | HGLILELQKIWQIEEAG [SRB5] | 2.86 ± 0.094
23 | HGLKQLRDSLADKIVDE [NUT2] | 3.11 ± 0.083
24 | HGMSVDPRHIQLLGDVM [RPO31] | 2.73 ± 0.057
25 | HGSISPQEESVSPNISS [SIR3] | 2.82 ± 0.075

Row | Sequence | protein stability index
26 | HHELVPKHIRLSSDEKR [RPB5] | 2.9 ± 0.12
27 | HHFTCEITGTSCLTFFQ [ITC1] | 1.9 ± 0.05
28 | HHRIFDSSAHFKGALTI [YMR129W/POM152] | 2.56 ± 0.073
29 | HICGICGLMTVIAKLNH [RPB2] | 1.65 ± 0.077
30 | HIFQVEYALEAVKRGTC [PRE6] | 2.76 ± 0.15
31 | HILAVKKMMNTLVHTRV [SSN2] | 2.25 ± 0.056
32 | HINKIPSNSTTTLHGPG [SRB8] | 2.89 ± 0.059
33 | HIPRLIPKQLLDDEKIF [YJL039C/NUP192] | 1.44 ± 0.18
34 | HIQEEEEQDVDMTGDEE [RPC19] | 3.38 ± 0.15
35 | HKDSFYDRATLTQLLSM [RPO31] | 1.79 ± 0.066
36 | HKKDRLQYLPLYAVSTF [SIR4] | 1.59 ± 0.035
37 | HKLDLAKRNLDANPSSQ [SMC2] | 1.86 ± 0.052
38 | HKQISAEDLTIAAKTHI [SIN4] | 3.03 ± 0.12
39 | HKSGKLSVKIGNVVMDI [RPC53] | 1.53 ± 0.1
40 | HLCSGILSSVNRTVLLK [SRB8] | 1.42 ± 0.073
41 | HLERNRKDKDAKFRLIL [RPS13] | 3.22 ± 0.12
42 | HLGCVPIGEAGDFGGWF [RIP1] | 2.81 ± 0.12
43 | HLLSINYGEKEERKRWA [PCI8] | 3.17 ± 0.11
44 | HLNFPNVKFLRIFISNV [SNF12] | 1.79 ± 0.071
45 | HLSHPGTNKDMILKLVC [ECM29] | 1.52 ± 0.049
46 | HLSYCSNLTIYPIYELL [GRR1] | 2.54 ± 0.071
47 | HNAGPVAGAGAASGAAA [RPP1B] | 3.11 ± 0.11
48 | HNMLNLLIHRKGLTYLH [PRP8] | 1.33 ± 0.08
49 | HPFGHALVAGIERYPSK [RPL27B] | 2.43 ± 0.14
50 | HPIRLYTRYLDRIYMLF [PRP8] | 2.63 ± 0.067

Row | Sequence | protein stability index
51 | HPWEQAKEVKVLYHTSG [PRP8] | 2.81 ± 0.23
52 | HQGTPLGSHSSSQKDGN [REC8] | 3.21 ± 0.094
53 | HRKHIAVLKKIQSKAVE [YCG1] | 2.55 ± 0.11
54 | HRLKLCKSLISENEDTK [CSE2] | 2.91 ± 0.17
55 | HSQFMKDLKDDSIYTKP [YJL039C/NUP192] | 2.83 ± 0.045
56 | HSRILPKKALKVKAGVR [RRP43] | 1.73 ± 0.046
57 | HTEDTVNESRNSDDIID [SRB5] | 2.31 ± 0.061
58 | HTLALEFVNGGKVVKNV [RRP46] | 2.2 ± 0.18
59 | HTPTIASYLTPLLEAKK [SSN2] | 3.04 ± 0.063
60 | HTSPHQPSDVKPTSHKQ [SIR4] | 2.76 ± 0.057
61 | HVDSLIEDFVDGIANSK [SRB7] | 3.06 ± 0.1
62 | HVINVGKTWEKLVLAAR [RPS0A] | 3.41 ± 0.15
63 | HVKAGKGLIKVNGSPIT [RPS16A] | 2.62 ± 0.065
64 | HVKIRATGGTRTKTPGP [RPS14B] | 1.38 ± 0.13
65 | HVLKTVDYGGAEWSLVR [SNU114] | 3.09 ± 0.19
66 | HVNKRKRVSGTSQHSDS [YOR098C/NUP1] | 1.93 ± 0.077
67 | HVTQEDFELAVGKVMNK [RPT6] | 2.83 ± 0.17
68 | HYLVNLTSPAFGPHVDV [GRR1] | 2.27 ± 0.14
69 | HYPEIEDLVDRIENPEK [RPP0] | 2.84 ± 0.1
70 | IAAIIGRLNTLVISLAA [IRR1] | 2.1 ± 0.035
71 | IAATGLNQINGLNNDFL [GRR1] | 3.34 ± 0.17
72 | IAAYIRRHRNPDLQFIV [SMC1] | 1.16 ± 0.048
73 | IADLDTEAEETSIHSTI [RRP43] | 3.76 ± 0.18
74 | IAGHDEFNGFSLYQVDP [PRE8] | 3.15 ± 0.09
75 | IAGTFNVGKPDQSIASG [YOR098C/NUP1] | 3.14 ± 0.1

Row | Sequence | protein stability index
76 | IAGVITRSKRLSQVYPT [CSN12] | 2.91 ± 0.18
77 | IAHENEQKWLIYDKKDH [SRB8] | 2.88 ± 0.13
78 | IAHNISAKNRVVILARA [RPL32] | 1.66 ± 0.043
79 | IAKSRYWYFLQKLHKVK [RPL20A] | 3.06 ± 0.11
80 | IAPRRKRLADGLSVTQK [DIS3] | 3.38 ± 0.088
81 | IAQSKKKNNKIKESSKK [SRP21] | 3.09 ± 0.1
82 | IASMSTVRASSLQDLIY [SMC2] | 1.92 ± 0.069
83 | IAYGASQLLLERLMISS [RET1] | 1.75 ± 0.092
84 | ICQIISSTITGDVVLAA [RPL5] | 2.84 ± 0.063
85 | IDDRDYVGNKRLELAGQ [RET1] | 3.22 ± 0.15
86 | IDEPIKSIMDGIHDGHI [FAS1] | 1.97 ± 0.044
87 | IDFTLLNRLLRLIVDPN [PRP8] | 1.85 ± 0.059
88 | IDGCVKIGDLGLARKFH [SSN3] | 2.98 ± 0.078
89 | IDLDHKRFLILQGEVEN [SMC4] | 1.58 ± 0.073
90 | IDLLLLGQERATDLAGP [PRP8] | 2.47 ± 0.047
91 | IDMLPMLLGTDLCSLKP [DIS3] | 2.74 ± 0.066
92 | IDQVNELVTISWVQPRI [RPN9] | 3.33 ± 0.069
93 | IDSFFLYVLPSFNIPRL [YMR129W/POM152] | 1.77 ± 0.05
94 | IDSTDHIRKASSKKSKR [LRP1] | 2.15 ± 0.046
95 | IDYALTAVKQGVTSLGI [PRE8] | 2.27 ± 0.072
96 | IEDVTPVPSDSTRKKGG [RPS14B] | 2.99 ± 0.039
97 | IEEHPTVVDAIDNSDEI [IRR1] | 3.35 ± 0.13
98 | IEEIEYNVKNIIQGRKN [PCI8] | 2.38 ± 0.059
99 | IEHNLRVISEYYSRITL [RPN5] | 2.63 ± 0.087
100 | IEKGSTFGINLIYVNPF [FAS1] | 2.58 ± 0.06

Same assay, conditions: pdr5∆

Row | Sequence | protein stability index
101 | GSVIQTHIAESAKEIAK [MCD1] | 2.89 ± 0.08
